Results published in publication PMC13316113, “RNA-induced PRC2 inhibition depends on the sequence of bound RNA”.

How the values were obtained:
[1] = molecular target: T1, six-subunit PRC2 (EZH2-EED-SUZ12-RBAP48-AEBP2-JARID2) (UniProt Q15910-2;O75530;Q15022;Q09028;Q6ZN18-2;Q92833 …); assay: EMSA; 100 mM KCl; EMSA: 50 mM Tris-HCl pH 7.5 (25 C), 100 mM KCl (or LiCl), 2.5 mM MgCl2, 0.1 mM ZnCl2, 2 mM 2-mercaptoethanol, 0.05 mg/ml BSA, 0.05 mg/ml yeast tRNA, 5% glycerol, 30 C 30 min; settings: protein: recombinant, tags: His (EZH2), Strep-GFP (AEBP2, JARID2), TEV treated, AEBP2 retains 7 extra N-terminal aa, copies: 1;1;1;1;1;1, label: 32P 5' (EMSA)
[2] = molecular target: T1, six-subunit PRC2 …; assay: UV crosslinking; very low crosslinking efficiency despite saturated binding; EMSA: 50 mM Tris-HCl pH 7.5 (25 C), 100 mM KCl (or LiCl), 2.5 mM MgCl2, 0.1 mM ZnCl2, 2 mM 2-mercaptoethanol, 0.05 mg/ml BSA, 0.05 mg/ml yeast tRNA, 5% glycerol, 30 C 30 min; settings: protein: recombinant; tags: His (EZH2), Strep-GFP (AEBP2, JARID2); TEV treated; AEBP2 retains 7 extra N-terminal aa; copies: 1;1;1;1;1;1; label: 32P; G4
[3] = molecular target: T1, six-subunit PRC2 …; assay: EMSA; 100 mM KCl; EMSA: 50 mM Tris-HCl pH 7.5 (25 C), 100 mM KCl (or LiCl), 2.5 mM MgCl2, 0.1 mM ZnCl2, 2 mM 2-mercaptoethanol, 0.05 mg/ml BSA, 0.05 mg/ml yeast tRNA, 5% glycerol, 30 C 30 min; settings: protein: recombinant, tags: His (EZH2), Strep-GFP (AEBP2, JARID2), TEV treated, AEBP2 retains 7 extra N-terminal aa, copies: 1;1;1;1;1;1, label: 32P 5' (EMSA); remark: listed apart in the source
[4] = molecular target: six-subunit PRC2 AEBP2del261-389 (UniProt Q15910-2;O75530;Q15022;Q09028;Q6ZN18-2;Q92833 …, internal_change); assay: EMSA; P = 0.05 vs WT; EMSA: 50 mM Tris-HCl pH 7.5 (25 C), 100 mM KCl (or LiCl), 2.5 mM MgCl2, 0.1 mM ZnCl2, 2 mM 2-mercaptoethanol, 0.05 mg/ml BSA, 0.05 mg/ml yeast tRNA, 5% glycerol, 30 C 30 min; settings: protein: recombinant; copies: 1;1;1;1;1;1; label: 32P 5' (EMSA); no G4

## AAAAAAAAAAGUGUGUGUGUGUGUGUGUGUGUGUGUGUGUGUGUGUGUGU (structured_RNA) [pUG-fold]
[1]; atypical G4 (pUG-fold: three G quartets and one U quartet)
  binding signal: ~2 fold weaker than TERRA/Poly(U)/Poly(C)

B1: 2G4 (structured_RNA)
RNA: AAAAAAAAAAGGGAAGGGAAGGGAAGGGAACAACAACAACAACAAGGGAAGGGAAGGGAAGGGAA
[2]
  binding result: binds

## AAAAAAAAAAGAGAGAGAUGAGUGUGAGUGUGAGUGUGAGUGAGAGAGAG (ssRNA) [TERRAmut]
[3]; no G4
  Kd: 66 ± 15 nM
[4]
  Kd: 112 ± 24 nM

## UUUUUUUUUUCUCUUUCUCUCCUUCUCUUCCUCUCUCUCCUCUUUCUCUC (ssRNA) [P10]
[1]; single strand
  binding signal: ~4 fold weaker than TERRA/Poly(U)/Poly(C)

## AAAAAAAAAAGAGAGAGAUUAGGGUUAGGGUUAGGGUUAGGGAGAGAGAG (structured_RNA) [TERRA]
[3]; single intramolecular G4 in K+
  Kd: 18 ± 9 nM

## UUUUUUUUUUUUUUUUUUUUUUUUUUUUUUUUUUUUUUUUUUUUUUUUUU (ssRNA) [Poly(U)]
[3]; single strand
  Kd: 28 ± 4 nM
